The target in assay [1] is T1, mFc-hNKG2D (recombinant mFc-tagged human NKG2D dimer) (human, UniProt P26718 73-216).
T1 construct: extracellular domain; Made in house; not shown: mouse Fc tag
T1 sequence (looked up): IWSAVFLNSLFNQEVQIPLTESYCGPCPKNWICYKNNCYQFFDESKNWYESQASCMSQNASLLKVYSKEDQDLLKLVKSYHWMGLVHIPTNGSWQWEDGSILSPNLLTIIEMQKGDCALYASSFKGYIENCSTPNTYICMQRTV
In words: SPR 37C, 1:1 kinetic fit, average.

Assay [2] deals with T2, Human CLEC12A-His (recombinant, K244 WT) (human, UniProt Q5QGZ9 65-265).
T2 construct: Made in house (Dragonfly Tx); also called hCLEC12A; hCLEC12A-His; not shown: His tag
T2 sequence: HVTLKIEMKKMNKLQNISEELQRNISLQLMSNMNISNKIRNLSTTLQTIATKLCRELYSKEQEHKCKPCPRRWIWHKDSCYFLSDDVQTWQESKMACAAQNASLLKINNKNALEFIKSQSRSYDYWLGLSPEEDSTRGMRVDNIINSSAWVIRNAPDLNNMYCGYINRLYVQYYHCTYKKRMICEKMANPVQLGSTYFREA
The assay can be described thus: SPR, two-state fit (ka1); control sample.

Assay [3] has as its target T3, Human CD16a V158 (FcγRIIIa V158) (human, UniProt P08637 17-208, biotinylated).
T3 construct: Bought recombinant receptor; also called hCD16aV; hFcγRIIIa V158
In words: SPR 25C, average.

Assay [4] concerns the target T1, mFc-hNKG2D (recombinant mFc-tagged …). In words: SPR; control sample.
Assay [5] has as its target T3, Human CD16a V158 (FcγRIIIa V158). The assay can be described thus: SPR; control sample. On the technique in general: Surface plasmon resonance follows binding to a sensor surface in real time, without labels.
Assay [6] concerns the target T4, Human CLEC12A expressed on cells (Ba/F3-hCLEC12A, PL21, HL60) (human, UniProt Q5QGZ9 1-265).
T4 sequence: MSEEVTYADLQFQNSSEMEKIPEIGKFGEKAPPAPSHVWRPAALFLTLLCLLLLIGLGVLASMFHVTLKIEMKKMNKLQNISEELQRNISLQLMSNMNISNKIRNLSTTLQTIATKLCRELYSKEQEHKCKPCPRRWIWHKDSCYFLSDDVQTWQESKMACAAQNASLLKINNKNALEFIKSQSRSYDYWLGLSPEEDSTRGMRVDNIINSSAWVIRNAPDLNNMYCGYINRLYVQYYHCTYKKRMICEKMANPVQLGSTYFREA
In words: cell-based or functional assay.

The target in assay [7] is T2, Human CLEC12A-His (recombinant, K244 WT). In words: SPR, two-state fit; after 4 wks 40C in HST pH 6.0.
Assay [8] deals with T5, human CLEC12A on cells (HL60, PL21, Ba/F3-hCLEC12A) (human, UniProt Q5QGZ9 1-265).
T5 construct: Endogenous on the AML lines HL60 and PL21; brought into mouse Ba/F3 cells by retroviral transduction; The cell line stands under assay; also called CLL-1
T5 sequence: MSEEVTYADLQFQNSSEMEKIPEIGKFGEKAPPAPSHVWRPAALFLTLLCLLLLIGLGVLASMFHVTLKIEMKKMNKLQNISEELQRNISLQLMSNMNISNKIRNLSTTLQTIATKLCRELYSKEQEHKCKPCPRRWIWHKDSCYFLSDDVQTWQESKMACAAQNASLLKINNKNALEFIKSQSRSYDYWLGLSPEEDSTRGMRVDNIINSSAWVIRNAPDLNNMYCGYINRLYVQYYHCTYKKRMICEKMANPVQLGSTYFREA
In words: flow cytometry, PL21 cells. On the technique in general: A flow cytometer gives signals particle by particle.

Another assay deals with T6, recombinant human CD16b (human, UniProt O75015 17-200, limits assumed, biotinylated).
T6 construct: also called FcγRIIIb
T6 sequence (O75015 17-200 limits assumed): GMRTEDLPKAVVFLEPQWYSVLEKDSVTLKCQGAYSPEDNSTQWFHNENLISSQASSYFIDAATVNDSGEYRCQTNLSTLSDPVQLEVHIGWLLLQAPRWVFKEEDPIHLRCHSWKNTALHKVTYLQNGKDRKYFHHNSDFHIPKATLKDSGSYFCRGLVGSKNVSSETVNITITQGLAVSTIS
The assay can be described thus: SPR 25C, steady state, average.

The target in assay [9] is T7, recombinant human CLEC12A-His (human, UniProt Q5QGZ9 65-265).
T7 construct: also called hCLEC12A-His; hCLEC12A
T7 sequence: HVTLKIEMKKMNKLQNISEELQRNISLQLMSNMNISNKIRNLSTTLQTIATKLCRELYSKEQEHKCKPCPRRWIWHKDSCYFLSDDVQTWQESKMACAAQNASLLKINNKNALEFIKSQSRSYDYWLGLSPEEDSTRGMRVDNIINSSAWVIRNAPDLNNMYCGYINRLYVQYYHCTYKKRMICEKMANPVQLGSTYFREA
The assay can be described thus: SPR, CLEC12A binding.

T3 sequence (P08637 17-208 F176V limits assumed): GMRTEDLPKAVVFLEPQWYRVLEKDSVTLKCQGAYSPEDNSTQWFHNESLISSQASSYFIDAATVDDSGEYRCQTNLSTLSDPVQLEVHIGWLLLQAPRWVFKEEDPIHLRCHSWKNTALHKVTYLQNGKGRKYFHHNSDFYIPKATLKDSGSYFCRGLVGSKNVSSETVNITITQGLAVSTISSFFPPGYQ

B1: AB0089 TriNKET (bispecific antibody, human IgG1, kappa)
chain: QLQLQESGPGLVKPSETLSLTCTVSGFSLTNYGLHWIRQPPGKCLEWIGVIWVGGATDYNPSLKSRVTISVDTSKNQFSLKLSSVQAADTAVYYCAKGDYGDTLDYWGQGTLVTVSSGGGGSGGGGSGGGGSGGGGSDIQMTQSPSSLSASVGDRVTITCHASQNINFWLSWYQQKPGKAPKLLIYEASNLHTGVPSRFSGSGSGTDFTLTISSLQPEDFATYYCQQSHSYPLTFGCGTKLEIKGSDKTHTCPPCPAPELLGGPSVFLFPPKPKDTLMISRTPEVTCVVVDVSHEDPEVKFNWYVDGVEVHNAKTKPREEQYNSTYRVVSVLTVLHQDWLNGKEYKCKVSNKALPAPIEKTISKAKGQPREPRVYTLPPCRDELTKNQVSLTCLVKGFYPSDIAVEWESNGQPENNYKTTPPVLVSDGSFTLYSKLTVDKSRWQQGNVFSCSVMHEALHNHYTQKSLSLSPG
heavy: EVQLVESGGGLVKPGGSLRLSCAASGFTFSSYSMNWVRQAPGKGLEWVSSISSSSSYIYYADSVKGRFTISRDNAKNSLYLQMNSLRAEDTAVYYCARGAPIGAAAGWFDPWGQGTLVTVSSASTKGPSVFPLAPSSKSTSGGTAALGCLVKDYFPEPVTVSWNSGALTSGVHTFPAVLQSSGLYSLSSVVTVPSSSLGTQTYICNVNHKPSNTKVDKKVEPKSCDKTHTCPPCPAPELLGGPSVFLFPPKPKDTLMISRTPEVTCVVVDVSHEDPEVKFNWYVDGVEVHNAKTKPREEQYNSTYRVVSVLTVLHQDWLNGKEYKCKVSNKALPAPIEKTISKAKGQPREPQVCTLPPSRDELTENQVSLTCLVKGFYPSDIAVEWESNGQPENNYKTTPPVLDSDGSFFLYSWLTVDKSRWQQGNVFSCSVMHEALHNHYTQKSLSLSPG
light: DIQMTQSPSSVSASVGDRVTITCRASQGISSWLAWYQQKPGKAPKLLIYAASSLQSGVPSRFSGSGSGTDFTLTISSLQPEDFATYYCQQGVSFPRTFGGGTKVEIKRTVAAPSVFIFPPSDEQLKSGTASVVCLLNNFYPREAKVQWKVDNALQSGNSQESVTEQDSKDSTYSLSSTLTLSKADYEKHKVYACEVTHQGLSSPVTKSFNRGEC
notes: F3' format heterodimer of three chains; human IgG1 Fc with EW-RVT and Y349C/S354C mutations; also called AB0089 Lot AB0089-002; CLEC12A TriNKET AB0089
As to B1, the Kd in assay [1] was found to be 881 nM; in [3], 333 nM; in [4], 797 nM; in [5], 322 nM; in assay [7], 1 nM. Also, the koff in assay [1] was 0.143 s⁻¹; in assay [3], 0.0277 s⁻¹; in assay [4], 0.135 s⁻¹; in assay [5] it was 0.0278 s⁻¹. The kon in assay [1] came to 162000 M⁻¹ s⁻¹; in [2], 1.01e+07 M⁻¹ s⁻¹; in assay [3], 83100 M⁻¹ s⁻¹; in assay [4], 169000 M⁻¹ s⁻¹; in [5], 86400 M⁻¹ s⁻¹. Besides, the “EC50, primary NK mediated cytotoxic killing of PL21 cells” value in assay [6] was 0.35 nM.

B2: AB0192 TriNKET (other)
chain: EVQLVESGGGVVQPGGSLRLSCAASGFTFNAFGMHWVRQAPGKCLEWVAFISSGSTSIYYANTVKGRFTISRDNSKNTLYLQMNSLRAEDTAVYYCARDGYPTGGAMDYWGQGTSVTVSSGGGGSGGGGSGGGGSGGGGSDIQMTQSPSSLSASVGDRVTITCKASQDIYNYLSWFQQKPGKAPKPLIYRANILVSGVPSRFSGSGSGQDYTFTISSLQPEDIATYYCLQFDAFPFTFGCGTKLEIKGSDKTHTCPPCPAPELLGGPSVFLFPPKPKDTLMISRTPEVTCVVVDVSHEDPEVKFNWYVDGVEVHNAKTKPREEQYNSTYRVVSVLTVLHQDWLNGKEYKCKVSNKALPAPIEKTISKAKGQPREPRVYTLPPCRDELTKNQVSLTCLVKGFYPSDIAVEWESNGQPENNYKTTPPVLVSDGSFTLYSKLTVDKSRWQQGNVFSCSVMHEALHNHYTQKSLSLSPG
heavy: EVQLVESGGGLVKPGGSLRLSCAASGFTFSSYSMNWVRQAPGKGLEWVSSISSSSSYIYYADSVKGRFTISRDNAKNSLYLQMNSLRAEDTAVYYCARGAPIGAAAGWFDPWGQGTLVTVSSASTKGPSVFPLAPSSKSTSGGTAALGCLVKDYFPEPVTVSWNSGALTSGVHTFPAVLQSSGLYSLSSVVTVPSSSLGTQTYICNVNHKPSNTKVDKKVEPKSCDKTHTCPPCPAPELLGGPSVFLFPPKPKDTLMISRTPEVTCVVVDVSHEDPEVKFNWYVDGVEVHNAKTKPREEQYNSTYRVVSVLTVLHQDWLNGKEYKCKVSNKALPAPIEKTISKAKGQPREPQVCTLPPSRDELTENQVSLTCLVKGFYPSDIAVEWESNGQPENNYKTTPPVLDSDGSFFLYSWLTVDKSRWQQGNVFSCSVMHEALHNHYTQKSLSLSPG
light: DIQMTQSPSSVSASVGDRVTITCRASQGISSWLAWYQQKPGKAPKLLIYAASSLQSGVPSRFSGSGSGTDFTLTISSLQPEDFATYYCQQGVSFPRTFGGGTKVEIKRTVAAPSVFIFPPSDEQLKSGTASVVCLLNNFYPREAKVQWKVDNALQSGNSQESVTEQDSKDSTYSLSSTLTLSKADYEKHKVYACEVTHQGLSSPVTKSFNRGEC
notes: the condition stands under assay; also called AB0192 Lot AB0192-005
As for B2, in assay [8], the EC50 was determined as 0.37 nM and the “FOB (fold over background)” value stood at 12 fold.

B3: F3'-1602 TriNKET (other)
chain: QLQLQESGPGLVKPSETLSLTCTVSGFSLTNYGLHWIRQPPGKCLEWIGVIWSGGKTDYNPSLKSRVTISKDTSKNQFSLKLSSVQAADTAVYYCAKYDYDDSLDYWGQGTLVTVSSGGGGSGGGGSGGGGSGGGGSDIQMTQSPSSLSASVGDRVTITCHASQNINFWLSWYQQKPGKAPKLLIYEASNLHTGVPSRFSGSGSGTRFTLTISSLQPEDIATYYCQQSHSYPLTFGCGTKLEIKGSDKTHTCPPCPAPELLGGPSVFLFPPKPKDTLMISRTPEVTCVVVDVSHEDPEVKFNWYVDGVEVHNAKTKPREEQYNSTYRVVSVLTVLHQDWLNGKEYKCKVSNKALPAPIEKTISKAKGQPREPRVYTLPPCRDELTKNQVSLTCLVKGFYPSDIAVEWESNGQPENNYKTTPPVLVSDGSFTLYSKLTVDKSRWQQGNVFSCSVMHEALHNHYTQKSLSLSPG
heavy: EVQLVESGGGLVKPGGSLRLSCAASGFTFSSYSMNWVRQAPGKGLEWVSSISSSSSYIYYADSVKGRFTISRDNAKNSLYLQMNSLRAEDTAVYYCARGAPIGAAAGWFDPWGQGTLVTVSSASTKGPSVFPLAPSSKSTSGGTAALGCLVKDYFPEPVTVSWNSGALTSGVHTFPAVLQSSGLYSLSSVVTVPSSSLGTQTYICNVNHKPSNTKVDKKVEPKSCDKTHTCPPCPAPELLGGPSVFLFPPKPKDTLMISRTPEVTCVVVDVSHEDPEVKFNWYVDGVEVHNAKTKPREEQYNSTYRVVSVLTVLHQDWLNGKEYKCKVSNKALPAPIEKTISKAKGQPREPQVCTLPPSRDELTENQVSLTCLVKGFYPSDIAVEWESNGQPENNYKTTPPVLDSDGSFFLYSWLTVDKSRWQQGNVFSCSVMHEALHNHYTQKSLSLSPG
light: DIQMTQSPSSVSASVGDRVTITCRASQGISSWLAWYQQKPGKAPKLLIYAASSLQSGVPSRFSGSGSGTDFTLTISSLQPEDFATYYCQQGVSFPRTFGGGTKVEIKRTVAAPSVFIFPPSDEQLKSGTASVVCLLNNFYPREAKVQWKVDNALQSGNSQESVTEQDSKDSTYSLSSTLTLSKADYEKHKVYACEVTHQGLSSPVTKSFNRGEC
notes: CLEC12A scFv-Fc, NKG2D A49MI Fab-Fc, human IgG1 Fc; also called AB0237
B3: the results for the Kd (with recombinant human CD16b; in assay [9]) were 7500 nM and 0.6 nM, respectively.

In general, Kd refers to a measure of binding affinity in units of concentration. One may read the koff as a measure of how fast the partners let go of each other. The term kon denotes the rate constant with which the complex forms. Broadly, the EC50 is the midpoint of the concentration-response curve. A lower EC50 goes with an effect from little substance.

Values taken from US20220119534A1 (DRAGONFLY THERAPEUTICS, published 2022).
